Experimental data as given in US11053313B2, “Anti-CLDN-5 antibody, and drug containing said antibody” (OSAKA UNIVERSITY, priority 2017, dated 2021).
Changes are numbered by the printed parent chain. Entries after “also recorded” stand apart in the source; their conditions may differ.

T1: 5-5-1 (Homo sapiens, UniProt O00501, A162Q/K157R/L160F/Q156A/S151M/S155N/V152T)
T1 construct: expressed in transfected cells; host or cells: retrovirus-infected cells (pCX4pur)
T1 sequence (O00501 1-218 S151M/V152T/S155N/Q156A/K157R/L160F/A162Q): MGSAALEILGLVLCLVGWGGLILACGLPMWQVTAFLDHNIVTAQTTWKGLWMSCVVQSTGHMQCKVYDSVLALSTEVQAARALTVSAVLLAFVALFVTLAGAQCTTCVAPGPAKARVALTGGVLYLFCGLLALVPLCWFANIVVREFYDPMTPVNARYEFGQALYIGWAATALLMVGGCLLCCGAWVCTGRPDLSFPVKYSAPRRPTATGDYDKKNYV

T2: mCLDN-5 (Mus musculus, UniProt O54942)
T2 construct: expressed in transfected cells; host or cells: retrovirus-infected cells
T2 sequence (O54942 1-218): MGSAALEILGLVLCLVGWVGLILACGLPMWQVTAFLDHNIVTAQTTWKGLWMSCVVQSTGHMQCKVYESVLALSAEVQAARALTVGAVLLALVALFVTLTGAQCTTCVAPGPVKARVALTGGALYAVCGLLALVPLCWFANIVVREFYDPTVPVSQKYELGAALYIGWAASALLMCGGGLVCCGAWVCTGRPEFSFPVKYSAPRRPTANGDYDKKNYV

T3: 1-1-5 (Homo sapiens, UniProt O00501, A34S/A72N/D37G/E76T/F35Y/G26A/H38D/H61Q/K48E/L36A/M29Q/M62I/Q31R/T33Y/T45A/T46M/T75S/V32I/V56S/V70L/W47Y/Y67F)
T3 construct: expressed in transfected cells; host or cells: retrovirus-infected cells (pCX4pur)
T3 sequence (O00501 1-218 G26A/M29Q/Q31R/V32I/T33Y/A34S/F35Y/L36A/D37G/H38D/T45A/T46M/W47Y/K48E/V56S/H61Q/M62I/Y67F/V70L/A72N/T75S/E76T): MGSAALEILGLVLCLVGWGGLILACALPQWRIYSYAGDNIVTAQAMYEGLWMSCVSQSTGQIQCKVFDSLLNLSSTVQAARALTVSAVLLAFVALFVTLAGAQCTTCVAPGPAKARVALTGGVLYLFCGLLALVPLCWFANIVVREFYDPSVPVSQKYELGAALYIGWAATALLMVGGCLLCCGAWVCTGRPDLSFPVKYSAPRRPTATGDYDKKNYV

T4: 1-5-5 (Homo sapiens, UniProt O00501, A34S/D37G/F35Y/G26A/H38D/K48E/L36A/M29Q/Q31R/T33Y/T45A/T46M/V32I/W47Y)
T4 construct: expressed in transfected cells; host or cells: retrovirus-infected cells (pCX4pur)
T4 sequence (O00501 1-218 G26A/M29Q/Q31R/V32I/T33Y/A34S/F35Y/L36A/D37G/H38D/T45A/T46M/W47Y/K48E): T3 sequence (O00501 1-218 G26A/M29Q/Q31R/V32I/T33Y/A34S/F35Y/L36A/D37G/H38D/T45A/T46M/W47Y/K48E/V56S/H61Q/M62I/Y67F/V70L/A72N/T75S/E76T) with S56V, Q61H, I62M, F67Y, L70V, N72A, S75T, T76E

T5: hCLDN-5 (Homo sapiens, UniProt O00501)
T5 construct: expressed in transfected cells; host or cells: HT-1080 human fibrosarcoma cells infected with a pCX4pur-derived retrovirus (HT-1080/hCLDN-5)
T5 sequence (O00501 1-218): T1 sequence (O00501 1-218 S151M/V152T/S155N/Q156A/K157R/L160F/A162Q) with M151S, T152V, N155S, A156Q, R157K, F160L, Q162A

B1: M48: mouse anti-CLDN-5 monoclonal antibody, IgG3/K; VH SEQ ID NO: 9, VL SEQ ID NO: 10; example of antibody E (antibody, V domains shown)
VH: QAYLQQSGAELVRPGASVKMSCKASGYTFTSYNMHWVKKTRRQGLEWIGAISPGNGNTSYNQKFKGKATLTVDKSSSTAYMQLSSLTSEDSAVYFCARDDGYYGALDYWGQGTSVTVSS
VL: DIVLTQSPATLSVTPGESVSLSCRASQGISTSIHWYQQKSNESPRLLIRYASQSISRIPSRFSGSGSGTDFTLTINGVESEDLSVYYCQQSYNLPLTFGSGTKLEI
modifications: M48 VH; M48 VL
B2: M11: mouse anti-CLDN-5 monoclonal antibody, IgG2b/K; VH SEQ ID NO: 3, VL SEQ ID NO: 4; example of antibody B (antibody, V domains shown)
VH: QVQLKQSGPGLVQPSQSLSITCTVSGFSLIRYGVHWVRQSPGKGLEWLGVKWSGGSTDYNGAFKSRLSISKDNSKSQVFFKMNSLQADDTAIYYCARGLDGYYVPDVWGTGTSVTVS
VL: DIVMTQSHKFMSTSVGDRVSITCKASQDVSTNVAWYQQKPGQSPTLLIYWASTRHTGVPDRFTGSGSGTDYTLTISSVQAEDLALYYCQQHYSTPLTFGAGTKLELRR
modifications: M11 VH; M11 VL
B3: R2: rat anti-CLDN-5 monoclonal antibody, IgG2a/K; VH SEQ ID NO: 11, VL SEQ ID NO: 12; example of antibody F (antibody, V domains shown)
VH: QVQLKESGPGLVQPSQTLSLTCTVSGLSLIRNSVSWIRQPPGKGLEWMGVIWSNGGTEYNSTVKSRLSISRDTSKNQVFLKMNSLQTEDSAMFFCARTPDGYYPYFDYWGQGVMVTVSS
VL: B1 VL
modifications: R2 VH; R2 VL
B4: M23: mouse anti-CLDN-5 monoclonal antibody, IgG2b/K; VH SEQ ID NO: 5, VL SEQ ID NO: 6; example of antibody C (antibody, V domains shown)
VH: EVQLQQSGPVLVKPGPSVMISCKASGFTFTDYYMHWVKQSHGKSLEWIGLVYPYNGGTDYNQKFKGKATLTVDTSSSTAYMELNSLTSEDSAVYYCARCLYDGLYFYAMDYWGQGTSVTVSS
VL: DIVMSQSPSSLAVSAGEKVTMTCKSSQSLLNSRARKNYLAWYQQKAGQSPKLLMYWASTRESGVPDRFTASGSGTDFTLTISSVQAEDLAVFYCKQSYNLPWTFGGGTKLEIKR
modifications: M23 VH; M23 VL
B5: R3: rat anti-CLDN-5 monoclonal antibody, IgG2a/K; VH SEQ ID NO: 13, VL SEQ ID NO: 14; example of antibody G (antibody, V domains shown)
VH: EVQLVESGGGLVQPGRSLKLSCAASGFTFSDYYMAWVRQAPKKGLEWVASISYEGRNTYYGDSVKGRFTISRDNAKSTLYLQMKSLRSEDTATYYCTRHPRRYFDYWGQGVMVTVSS
VL: DIVMTQSPSSLAVSAGETVTMNCRSSQSLFSSGDQKKFLAWYQQKPGQSPKLLISLASTRESGVPDRFIGSGSGTDFTLTINNMQAEDLAIYYCQQHYDIPYTFGAGTKLEL
modifications: R3 VH; R3 VL
B6: R14: rat anti-CLDN-5 monoclonal antibody, IgG2a/K; VH SEQ ID NO: 21, VL SEQ ID NO: 22; example of antibody K (antibody, V domains shown)
VH: QVTLKESGPGILQPSHTLSLTCSFSGFSLSTYGMGVSWIRQPSGKGLEWLASIWWNGRTYTNPSLMSRLTVSKDTSTNQAFLRVTSVETADTATYYCAHTPYDYSNLGWFTYWGQGTLVTVSS
VL: DILMTQTPSSQAVSAGEKVTVSCKSSQSLLYSGDQKSYLAWYQQKPGQSPKLLIYLASTRKSGVPDRFIGSGSGTDFTLTISSVQAEDLADYYCQQHYTYPLTFGSGTKLEI
modifications: R14 VH; R14 VL

Key:
[1] = target: T1, 5-5-1; test: Epitope analysis FACS, chimeric protein 5-5-1; format: binding; settings: antibody concentration 5 μg/mL; second extracellular loop substituted with hCLDN-1
[2] = tested on: hCLDN-5; test: Epitope analysis by hCLDN-5/mCLDN-5 chimeric CLDN (D68E, T75A, S151T, TM; FACS); format: binding, human; settings: antibody concentration 5 μg/mL, mutants D68E
[3] = target: T2, mCLDN-5; test: Evaluation of CLDN specificity by FACS, mCLDN-5-expressing cells; format: binding; settings: hybridoma culture supernatant as primary antibody, FIG. 1B
[4] = tested on: MDCKII/hCLDN-5; test: TEER of CLDN-5 compulsory expression system, MDCKII/hCLDN-5; format: cell-based, human; settings: MDCKII/hCLDN-5, FIG. 7B
[5] = tested on: CLDN-5; test: CLDN-5 localization by immunostaining in blood-brain barrier simulation system; format: cell-based; settings: monkey BBB kit, 12 hours after addition, FIG. 14
[6] = target: T3, 1-1-5; test: Epitope analysis FACS, chimeric protein 1-1-5; format: binding; settings: antibody concentration 5 μg/mL; first extracellular loop substituted with hCLDN-1
[7] = tested on: hCLDN-5; test: Epitope analysis by hCLDN-5/hCLDN-1 chimeric CLDN (FACS), loop assignment; format: binding, human; settings: antibody concentration 5 μg/mL, hCLDN-5/hCLDN-1 chimeras
[8] = tested on: ZO-1; test: ZO-1 localization by immunostaining in blood-brain barrier simulation system; format: cell-based; settings: monkey BBB kit, 12 hours after addition, FIG. 14
[9] = tested on: blood-brain barrier simulation system; test: Material permeability of blood-brain barrier simulation system (monkey BBB kit); format: cell-based; settings: 12 hours after addition, FIG. 13
[10] = target: T4, 1-5-5; test: Epitope analysis FACS, chimeric protein 1-5-5; format: binding; settings: antibody concentration 5 μg/mL; N-terminal half of first extracellular loop substituted with hCLDN-1
[11] = target: T5, hCLDN-5; test: Western blotting operability, HT-1080/hCLDN-5 lysate; format: binding; settings: SDS-PAGE under reducing condition, antibody concentration 10 μg/mL, FIG. 5
Method: FIG. 5 illustrates western blotting images showing the CLDN-5 primary structure recognizability of the anti-CLDN-5 antibodies obtained in Example 3-6). The primary antibodies used are shown at the top of the images, and the used cells are shown under the primary antibodies. The names of proteins represented by bands are shown on the left side of the images.
Cell lysates were prepared from HT-1080/mock and HT-1080/hCLDN-5 obtained in Example 1-2), and the lysates were separated by SDS-PAGE under a reducing condition. By using the antibodies (antibody concentration: 10 μg/mL) obtained in Example 1 as primary antibodies, western blotting was performed according to the conventional method. As primary antibodies, commercial monoclonal antibodies (4C3C2, Invitrogen, 35-2500) recognizing the C-terminal of CLDN-5 were used as positive control, and β actin antibodies (Sigma Aldrich, A1978) were used as loading control. The results are illustrated in FIG. 5.

| Molecule | recognition of 5-5-1 [1] | portion of hCLDN-5 recognized [2] | binding capacity to mCLDN-5 [3] | reduction in TEER [4] | localization properties of CLDN-5 in the intercellular space [5] | recognition of 1-1-5 [6] | extracellular loop of CLDN-5 recognized [7] | localization properties of ZO-1 [8] | 4 kDa FITC-dextran permeability of the blood-brain barrier simulation system [9] | recognition of 1-5-5 [10] | recognition of linear peptide (western blotting operability) [11] |
| --- | --- | --- | --- | --- | --- | --- | --- | --- | --- | --- | --- |
| B1 | incapable of recognizing | domain around the 151st amino acid from the N-terminal present in the second extracellular loop | extremely low | greatly reducing TEER | reduced | capable of recognizing | second extracellular loop | did not change | exhibited an activity of improving |  |  |
| B2 | capable of recognizing | domain around the 68th amino acid from the N-terminal present in the first extracellular loop |  |  |  | incapable of recognizing | first extracellular loop |  |  | incapable of recognizing |  |
| B3 | capable of recognizing | domain around the 68th amino acid from the N-terminal present in the first extracellular loop |  |  |  | incapable of recognizing | first extracellular loop |  |  | capable of recognizing |  |
| B4 | incapable of recognizing | domain around the 151st amino acid from the N-terminal present in the second extracellular loop |  |  |  | capable of recognizing | second extracellular loop |  |  |  |  |
| B5 | incapable of recognizing | domain around the 151st amino acid from the N-terminal present in the second extracellular loop |  |  |  | capable of recognizing | second extracellular loop |  |  |  |  |
| B6 | incapable of recognizing | three-dimensional structure created by the transmembrane domain of hCLDN-5; also recorded: domain around the 151st amino acid from the N-terminal present in the second extracellular loop |  |  |  | capable of recognizing | second extracellular loop |  |  |  | weakly recognized |
